Measured values as given in publication PMC8691596.
Where two headings read alike, the source gives them in different places.

Columns and labels:
[1] = molecular target: human FcγRIIIa (CD16a) V158 allele, histidine-tagged recombinant (human) (UniProt P08637); assay: SPR; His-tagged Fc receptor captured by anti-histidine antibody immobilised on CM5; antibody injected at 100 μg/mL for 1 min; response about 5 s before end of injection, blank subtracted; 25°C, HBS-EP+; Biacore T200
[2] = molecular target: human FcγRIIIa (CD16a) F158 allele, histidine-tagged recombinant (human) (UniProt P08637); assay: as above
[3] = molecular target: rat FcγRI (CD64), histidine-tagged recombinant (rat); assay: as above
[4] = molecular target: anti-CD20 IgG1 L234S/L235T/G236R (human); assay: SPR; antibody captured by biotin-labelled anti-human κ light chain on streptavidin CM5; soluble Fcγ receptor injected at one concentration ([…] to 18 μM); HBS-EP+ pH 7.4, 25°C; Biacore 8K
[5] = molecular target: anti-CD20 IgG1 L234S/L235T/G236R (human); assay: as above; remark: listed apart in the source
[6] = remark: other sources report otherwise

B1: anti-CD52 IgG1 L234A/L235A (LALA) (antibody, V domains shown)
VH: QVQLQESGPGLVRPSQTLSLTCTVSGFTFTDFYMNWVRQPPGRGLEWIGFIRDKAKGYTTEYNPSVKGRVTMLVDTSKNQFSLRLSSVTAADTAVYYCAREGHTAAPFDYWGQGSLVTVSS
VL: DIQMTQSPSSLSASVGDRVTITCKASQNIDKYLNWYQQKPGKAPKLLIYNTNNLQTGVPSRFSGSGSGTDFTFTISSLQPEDIATYYCLQHISRPRTFGQGTKLEIK
For B1, which mean response [1] is on record?
The mean response was 63.2 RU.

What about the mean response [2] of the same binder?
The mean response was 17 RU.

B2: anti-CD52 IgG1 N297Q (aglycosyl) (antibody, V domains shown)
VH: QVQLQESGPGLVRPSQTLSLTCTVSGFTFTDFYMNWVRQPPGRGLEWIGFIRDKAKGYTTEYNPSVKGRVTMLVDTSKNQFSLRLSSVTAADTAVYYCAREGHTAAPFDYWGQGSLVTVSS
VL: DIQMTQSPSSLSASVGDRVTITCKASQNIDKYLNWYQQKPGKAPKLLIYNTNNLQTGVPSRFSGSGSGTDFTFTISSLQPEDIATYYCLQHISRPRTFGQGTKLEIK
B2 was tested. Which mean response [3] did it give?
The mean response was 488 RU.

B3: human FcγRIIa H131 extracellular domain, C-terminal hexa-His (independently-made panel), P12318 34-217 (receptor)
chain: QAAAPPKAVLKLEPPWINVLQEDSVTLTCQGARSPESDSIQWFHNGNLIPTHTQPSYRFKANNNDSGEYTCQTGQTSLSDPVHLTVLSEWLVLQTPHLEFQEGETIMLRCHSWKDKPLVKVTFFQNGKSQKFSHLDPTFSIPQANHSHSGDYHCTGNIGYTLFSSKPVTITVQVPSMGSSSPMG
With B3 as the binder, how does the response [4, 6] read?
The response was less than 1 RU.

B4: human FcγRIIa R131 extracellular domain, C-terminal hexa-His (independently-made panel), P12318 34-217 (receptor)
chain: QAAAPPKAVLKLEPPWINVLQEDSVTLTCQGARSPESDSIQWFHNGNLIPTHTQPSYRFKANNNDSGEYTCQTGQTSLSDPVHLTVLSEWLVLQTPHLEFQEGETIMLRCHSWKDKPLVKVTFFQNGKSQKFSRLDPTFSIPQANHSHSGDYHCTGNIGYTLFSSKPVTITVQVPSMGSSSPMG
modifications: not checked
With B4 as the binder, how does the response [4] read?
Its response is less than 1 RU.

B5: cynomolgus monkey FcγRIII extracellular domain, C-terminal hexa-His (receptor)
chain: GMRAEDLPKAVVFLEPQWYRVLEKDRVTLKCQGAYSPEDNSTRWFHNESLISSQTSSYFIAAARVNNSGEYRCQTSLSTLSDPVQLEVHIGWLLLQAPRWVFKEEESIHLRCHSWKNTLLHKVTYLQNGKGRKYFHQNSDFYIPKATLKDSGSYFCRGLIGSKNVSSETVNITITQDLAVSSISSFFPPGYQ
How did the response [4, 6] turn out when B5 was run?
The response was less than 1 RU.

B6: mouse FcγRI extracellular domain, C-terminal hexa-His (independently-made panel) (receptor)
chain: EVVNATKAVITLQPPWVSIFQKENVTLWCEGPHLPGDSSTQWFINGTAVQISTPSYSIPEASFQDSGEYRCQIGSSMPSDPVQLQIHNDWLLLQASRRVLTEGEPLALRCHGWKNKLVYNVVFYRNGKSFQFSSDSEVAILKTNLSHSGIYHCSGTGRHRYTSAGVSITVKELFTTPVLRASVSSPFPEGSLVTLNCETNLLLQRPGLQLHFSFYVGSKILEYRNTSSEYHIARAEREDAGFYWCEVATEDSSVLKRSPELELQVLGPQSSAP
Which response [5] does the source give for B6 here?
Its response is less than 1 RU.

B7: mouse FcγRIIb extracellular domain, C-terminal hexa-His (receptor)
chain: THDLPKAVVKLEPPWIQVLKEDTVTLTCEGTHNPGNSSTQWFHNGRSIRSQVQASYTFKATVNDSGEYRCQMEQTRLSDPVDLGVISDWLLLQTPQLVFLEGETITLRCHSWRNKLLNRISFFHNEKSVRYHHYSSNFSIPKANHSHSGDYYCKGSLGRTLHQSKPVTITVQGPKSSRSLP
With B7 as the binder, how does the response [5] read?
The response was less than 1 RU.

B8: mouse FcγRIII extracellular domain, C-terminal hexa-His (receptor)
chain: ALPKAVVKLDPPWIQVLKEDMVTLMCEGTHNPGNSSTQWFHNGRSIRSQVQASYTFKATVNDSGEYRCQMEQTRLSDPVDLGVISDWLLLQTPQRVFLEGETITLRCHSWRNKLLNRISFFHNEKSVRYHHYKSNFSIPKANHSHSGDYYCKGSLGSTQHQSKPVTITVQDPATTSSISLVWYHT
B8 was tested. Which response [5] did it give?
Its response is less than 1 RU.
